Measurements: the supplement of paper PMC10567573
± gives the standard deviation.

Assay: protein stability index of a GFP-peptide fusion (GPS, HEK-293T) (PSI 1-6); higher = more stable
Conditions: c terminus: a fixed tail appended
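Further: 24-mer peptide tiles fused after GFP, lentivirally expressed, FACS-sorted into six equal bins by GFP/DsRed ratio, decoded by Illumina sequencing, PSI is the read-weighted mean bin number.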

Sequence | protein stability index (treatment: DMSO) | protein stability index (treatment: MLN4924 1 uM, 8 h)
IQFWNSRQSLEGLSVRSVFFGVFQ [CLPTM1] | 2.65 ± 0.46 | 2.79 ± 0.91
IQPDDLINQLTFIMDANQTYLVSE [FAF2] | 2.32 ± 0.27 | 2.37 ± 0.31
IQVSLYCQEWYARRHCPLPQATFW [SOAT2] | 2.87 ± 0.38 | 3.07 ± 0.83
IREALHELLCCTNVSTKEGIHLAL [INTS4] | 2.41 ± 0.46 | 2.48 ± 0.3
IRIIDRALKEDFGFKHRLWVYSGR [PRIM1] | 2.18 ± 0.51 | 2.27 ± 0.51
IRVVGRGAFGIVHLCLRKADQKLV [NEK8] | 3.02 ± 0.59 | 2.74 ± 0.81
ISFTLYLIGFCMFVLSLVKKHYRL [CDS2] | 2.29 ± 0.48 | 2.44 ± 0.53
ISPETMVALLTGKFSNIVDKFVIV [CDC25B] | 2.29 ± 0.51 | 2.38 ± 0.73
ITRPSPRRSNSPDKFKRPTPPPSP [CCDC6] | 5.18 ± 0.13 | 5.44 ± 0.081
IVLLEELLPKGSKEEQRDYVFYLA [FIS1] | 2.33 ± 0.34 | 2.16 ± 0.44
IVVGRLKVALEPQLWELGKVLRKA [LPCAT4] | 2.31 ± 0.37 | 2.61 ± 0.49
IWTAHYDPGHCFAESRELPVRCAG [ALG2] | 2.38 ± 0.32 | 2.4 ± 0.24
IYRRYRQFHALQSKLEERFGPDSK [NCF4] | 2.28 ± 0.23 | 2.61 ± 0.34
KAQLLARVNKEHEHKLKVVRDQIS [TRIM9] | 3.34 ± 0.27 | 3.42 ± 0.075
KAVSEMRQKIWNNMPKDHPVSCCL [DYNC2LI1] | 2.41 ± 0.21 | 2.46 ± 0.29
KDEEGRLRDPATITTLRVPVLRPM [PPP2R2B] | 3.78 ± 0.23 | 4.04 ± 0.26
KDESCYDNAEAAFSDDEEDLNSKG [INTS3] | 5.6 ± 0.39 | 5.5 ± 0.18
KDNEFTSKPWHWPINYQGLRFSGV [POMT2] | 2.23 ± 0.23 | 2.42 ± 0.22
KECGKVFSQSAGLIQHQRIHKGEK [ZSCAN9] | 4.42 ± 0.16 | 4.48 ± 0.3
KEEAGAPGGGAGMAAGFPYALRAY [CEBPB] | 3.06 ± 0.13 | 3.31 ± 0.15
KELVEFAQDDDRLREERKKAKKNK [CLINT1] | 5.49 ± 0.096 | 5.53 ± 0.17
KFHHSDCLSTWLLHFIATNYLIFS [RHOBTB3] | 3.21 ± 0.23 | 3.05 ± 0.24

Sequence | protein stability index (treatment: DMSO) | protein stability index (treatment: MLN4924 1 uM, 8 h)
KFLIWDTAGQERFRALAPMYYRGS [RAB22A] | 2.39 ± 0.23 | 2.55 ± 0.33
KGISQTNLITTVTPEKKAEEERDE [EPB41L3] | 5.54 ± 0.13 | 5.59 ± 0.2
KHGIEYQSKPLLSAFADIIHSLKE [FADS1] | 2.51 ± 0.44 | 2.81 ± 0.49
KHSVLLSASRKSAEQLRIELNAEK [WEE1] | 3.92 ± 0.32 | 4.16 ± 0.21
KIEDFREEMWTFRGKIHAFRGQIL [CCDC70] | 2.41 ± 0.24 | 2.09 ± 0.31
KIKEKYIDQEELNKTKPIWTRNPD [HSP90AB1] | 3.71 ± 0.26 | 3.96 ± 0.24
KILHTAWHPAENIIAIAATNNLYI [PPP2R2C] | 2.81 ± 0.54 | 2.93 ± 0.53
KIMEAESQKATRECEKSALTPGFS [FAN1] | 4.86 ± 0.29 | 4.84 ± 0.14
KIWPEIKVPRPDALDNESWGFVHP [RETREG3] | 2.68 ± 0.48 | 2.57 ± 0.54
KKEELLFDDGDDIMATLGFGDSPK [FBF1] | 4.54 ± 0.2 | 4.59 ± 0.27
KKKGMYRKAITEAANAARHVAPEI [PWWP2B] | 4.33 ± 0.045 | 4.5 ± 0.28
KKKKDKEKEKEKHKVKAEEEKKAK [BRD3] | 5.2 ± 0.3 | 5.66 ± 0.13
KKQPWWRKLFGQESGPSAEKYSVA [FUNDC2] | 3.1 ± 0.16 | 3.32 ± 0.35
KLERLKQQNEDLRRMAESLRIPEG [FUT8] | 3.87 ± 0.28 | 4 ± 0.3
KLLKQMRILWKKIQENQRNLYEEG [TRIM43] | 1.88 ± 0.61 | 1.85 ± 0.081
KMAHVIAACLYLVCRTEGTPHMLL [BRF1] | 3.26 ± 0.64 | 2.84 ± 0.42
KMNGSHRDQGSSALSGVGGIRLPN [IKZF1] | 4.1 ± 0.32 | 3.8 ± 0.12
KNALEKYGPLKPLPQTPHLEEDLK [MYBL2] | 5.16 ± 0.38 | 5.11 ± 0.2
KPSGALGSESYKSSAGSAEQTAPG [EHMT1] | 5.26 ± 0.39 | 5.43 ± 0.22
KPSVDTEGPALVEIDRSVENTLLN [MIA2] | 4.99 ± 0.23 | 5.07 ± 0.26
KQKYFYKGGLVWDENSSDGRYVKE [CLK3] | 3.53 ± 0.2 | 3.62 ± 0.043
KQLRRQMWWRGCKIKAIMALVAAI [VAMP4] | 1.91 ± 0.44 | 1.92 ± 0.23

Sequence | protein stability index (treatment: DMSO) | protein stability index (treatment: MLN4924 1 uM, 8 h)
KQQIANLDKQAKLSRAYDGTTYLP [USP39] | 3.62 ± 0.19 | 3.87 ± 0.41
KRRKSMSGASPKESTNPEKAHETL [CDC25A] | 5.24 ± 0.25 | 5.03 ± 0.23
KRRRSVTPPEEQQEAEEPKARVLR [CDC25B] | 5.32 ± 0.24 | 5.67 ± 0.21
KRSQSMKSYPSSELRNMCDEHIAS [CLCN6] | 4.56 ± 0.34 | 4.734 ± 0.012
KSEYMEIEEDMNNSIAHYRQVNIR [KCNA1] | 3.34 ± 0.2 | 3.57 ± 0.53
KSKKYSDVEVPASVTGYSFASDGD [ADD1] | 4.68 ± 0.38 | 4.82 ± 0.22
KSSIYESDFQIEPGFYATYESTLF [MIA2] | 2.33 ± 0.52 | 2.3 ± 0.31
KTSAALSTVGSAISRKLGDMRNSA [TPD52L2] | 3.64 ± 0.29 | 3.7 ± 0.29
KWLPQQNAAHSLLSTNDKTIKLWK [PPP2R2C] | 2.88 ± 0.096 | 3.09 ± 0.32
KWWSDRLALFPLLPKVLQKYWCVT [ZBED1] | 2.93 ± 1 | 2.73 ± 0.61
KYESVLQLGRALTAHLYSLLQTQH [ARFIP2] | 3.09 ± 0.24 | 2.85 ± 0.092
LAKDFIRRLLVKDPKRRMTIAQSL [DAPK3] | 2.96 ± 0.3 | 2.7 ± 0.051
LALEEPVDYKQSVLNVAGEAGGKQ [SLC6A17] | 4.91 ± 0.45 | 5.32 ± 0.14
LALSPDLSLSNATVLTRSLFLGRI [FANCE] | 2.35 ± 0.36 | 2.24 ± 0.3
LASYLDRVRSLETENRRLESKIRE [KRT18] | 3.58 ± 0.34 | 3.7 ± 0.11
LATRSNEKQELQELNDRFANFIEK [PRPH] | 4.43 ± 0.25 | 4.37 ± 0.095
LCDVVLVVGAKKIYAHRVILSACS [KLHL20] | 2.7 ± 0.29 | 2.74 ± 0.39
LCEYFSQHLGEYENVLAALEGLNL [NECAB1] | 2.61 ± 0.35 | 2.63 ± 0.22
LCIIWFSFELLVRFFACPSKATFS [KCNA3] | 3.13 ± 0.39 | 3.12 ± 0.58
LDMNFSLENREEPWVKELQDSKEM [ZNF449] | 5.31 ± 0.18 | 5.35 ± 0.32
LEAVAGALVVALWGPLQDSLEHTL [TSPAN10] | 3.12 ± 0.95 | 3.57 ± 0.42
